Results reported in patent US20150202223A1 (GENERAL HOSPITAL, published 2015).

T1: STING-HA (Sting cDNA with a C-terminal HA tag, stably expressed in p53-/- MEFs) (mouse, UniProt Q3TBT3 1-378)
T1 construct: not shown: C-terminal HA tag added by PCR
T1 sequence (looked up): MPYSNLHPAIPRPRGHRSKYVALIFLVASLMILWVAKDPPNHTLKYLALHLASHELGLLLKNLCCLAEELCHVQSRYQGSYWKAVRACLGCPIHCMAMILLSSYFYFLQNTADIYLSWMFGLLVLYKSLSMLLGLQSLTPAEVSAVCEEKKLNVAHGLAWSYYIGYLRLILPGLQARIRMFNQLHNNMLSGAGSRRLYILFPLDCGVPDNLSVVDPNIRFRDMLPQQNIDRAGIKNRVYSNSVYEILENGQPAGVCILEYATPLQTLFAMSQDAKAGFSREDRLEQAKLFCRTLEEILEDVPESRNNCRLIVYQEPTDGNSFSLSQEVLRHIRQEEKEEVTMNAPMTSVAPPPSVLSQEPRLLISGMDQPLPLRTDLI


Target: T1, STING-HA (Sting cDNA with a C-terminal …)
Assay: anti-HA immunoprecipitation of STING-HA from MEF lysate, SILAC mass spectrometry
Protocol: Light (L) and heavy (H) isotope-labeled p53−/− MEFs mock infected (L) or stably expressing Sting-HA (H) were stimulated with 1000 U/mL IFNβ for 18 h. H cells were transfected with ISD for 2.5 h. Cells were lysed in 0.2% NP-40 buffer (above), and insoluble proteins were removed by centrifugation. 18 mg of each lysate was mixed with 1 ug/mL anti-HA antibody and Protein G beads (Pierce), and rotated for 2.5 h at 4° C. Beads were pelleted and washed extensively with wash buffer (above). The two samples were mixed, cysteines were reduced by DTT and alkylated with iodoacetamide, and proteins were eluted by heating in SDS sample buffer (Life Technologies) for 10 min before separation on a 4-12% gradient gel. The whole gel lane was cut into 8 slices, proteins were digested inside the gel with trypsin, and peptides were extracted from the gel as described4. Extracted peptides were purified with StageTips5 and analyzed with a 100 min acquisition method on a Thermo EASY-nLC 1000 UHPLC coupled to a Q Exactive mass spectrometer. […] All proteins were identified with at least 2 or more unique peptides and quantified with 3 or more ratios. […] To identify significant interactions, P-values were calculated via Gaussian modeling of the log(H/L) data, and proteins with P<0.05 were designated as candidates for siRNA screening.

binding result | Binder
no binding | ANP32A (other, mouse, UniProt O35381 1-247, looked up, Endogenous protein co-precipitated from MEF lysates) MEMDKRIYLELRNRTPSDVKELVLDNCKSIEGKIEGLTDEFEELEFLSTINVGLTSISNLPKLNKLKKLELSENRISGDLEVLAEKCPNLKHLNLSGNKIKDLSTIEPLKKLENLKSLDLFNCEVTNLNAYRENVFKLLPQVMYLDGYDRDNKEAPDSDVEGYVEDDDEEDEDEEEYDEYAQLVEDEEEEDEEEEGEEEDVSGEEEEDEEGYNDGEVDDEEDEEEAGEEEGSQKRKREPDDEGEEDD
no binding | HMGB2 (other, mouse, UniProt P30681 1-210, looked up, Endogenous protein co-precipitated from MEF lysates) MGKGDPNKPRGKMSSYAFFVQTCREEHKKKHPDSSVNFAEFSKKCSERWKTMSAKEKSKFEDLAKSDKARYDREMKNYVPPKGDKKGKKKDPNAPKRPPSAFFLFCSENRPKIKIEHPGLSIGDTAKKLGEMWSEQSAKDKQPYEQKAAKLKEKYEKDIAAYRAKGKSEAGKKGPGRPTGSKKKNEPEDEEEEEEEEEEEDDEEEEEDEE
